Patent US20080050378A1 (ONCOTHERAPY SCIENCE, published 2008)

T1: EYFP-fused KIF11 (EYFP-KIF11) (human, UniProt P52732 1-1056)
T1 construct: Expressed in COS-7 cells; not shown: EYFP from pEYFP-N1 vector
T1 sequence: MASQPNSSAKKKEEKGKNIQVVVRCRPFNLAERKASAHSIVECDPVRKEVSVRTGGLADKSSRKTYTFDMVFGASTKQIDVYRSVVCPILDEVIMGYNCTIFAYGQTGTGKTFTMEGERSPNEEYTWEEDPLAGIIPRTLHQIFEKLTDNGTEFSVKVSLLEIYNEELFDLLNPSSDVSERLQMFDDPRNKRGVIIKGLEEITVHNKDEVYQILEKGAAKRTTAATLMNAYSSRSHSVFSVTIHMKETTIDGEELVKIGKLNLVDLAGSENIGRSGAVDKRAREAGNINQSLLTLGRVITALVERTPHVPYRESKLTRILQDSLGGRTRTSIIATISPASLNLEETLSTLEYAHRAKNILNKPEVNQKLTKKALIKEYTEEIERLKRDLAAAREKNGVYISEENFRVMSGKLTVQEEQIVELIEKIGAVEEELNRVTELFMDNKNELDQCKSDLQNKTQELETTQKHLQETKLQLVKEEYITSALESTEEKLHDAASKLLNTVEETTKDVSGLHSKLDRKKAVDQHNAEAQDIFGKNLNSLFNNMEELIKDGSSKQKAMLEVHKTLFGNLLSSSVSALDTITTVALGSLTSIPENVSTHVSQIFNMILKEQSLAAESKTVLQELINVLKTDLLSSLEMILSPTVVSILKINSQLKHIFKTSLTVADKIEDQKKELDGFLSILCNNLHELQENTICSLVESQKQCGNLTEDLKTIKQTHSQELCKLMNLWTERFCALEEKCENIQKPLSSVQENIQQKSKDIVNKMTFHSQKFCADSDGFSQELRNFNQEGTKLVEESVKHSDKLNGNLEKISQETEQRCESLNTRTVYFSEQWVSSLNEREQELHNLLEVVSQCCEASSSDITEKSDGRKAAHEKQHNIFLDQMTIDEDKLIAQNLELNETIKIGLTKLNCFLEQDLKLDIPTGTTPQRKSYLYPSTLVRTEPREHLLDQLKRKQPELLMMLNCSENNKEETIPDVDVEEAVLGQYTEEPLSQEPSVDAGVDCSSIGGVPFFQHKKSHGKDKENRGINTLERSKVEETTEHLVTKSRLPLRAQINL

B1: FLAG- and HA-tagged KOC1 (pCAGGS-n3FH-KOC1; NH2-terminal FLAG, COOH-terminal HA) (other)
chain: MNKLYIGNLSENAAPSDLESIFKDAKIPVSGPFLVKTGYAFVDCPDESWALKAIEALSGKIELHGKPIEVEHSVPKRQRIRKLQIRNIPPHLQWEVLDSLLVQYGVVESCEQVNTDSETAVVNVTYSSKDQARQALDKLNGFQLENFTLKVAYIPDEMAAQQNPLQQPRGRRGLGQRGSSRQGSPGSVSKQKPCDLPLRLLVPTQFVGAIIGKEGATIRNITKQTQSKIDVHRKENAGAAEKSITILSTPEGTSAACKSILEIMHKEAQDIKFTEEIPLKILAHNNFVGRLIGKEGRNLKKIEQDTDTKITISPLQELTLYNPERTITVKGNVETCAKAEEEIMKKIRESYENDIASMNLQAHLIPGLNLNALGLFPPTSGMPPPTSGPPSAMTPPYPQFEQSETETVHLFIPALSVGAIIGKQGQHIKQLSRFAGASIKIAPAEAPDAKVRMVIITGPPEAQFKAQGRIYGKIKEENFVSPKEEVKLEAHIRVPSFAAGRVIGKGGKTVNELQNLSSAEVVVPRDQTPDENDQVVVKITGHFYACQVAQRKIQEILTQVKQHQQQKALQSGPPQSRRK
notes: also called pCAGGS-FLAG-tagged-KOC1; full length KOC1 construct; not shown: N-terminal FLAG tag; C-terminal HA tag
B2: endogenous KOC1 (KH domain containing protein over-expressed in cancer) (other)
chain: B1 chain
notes: Endogenous protein in cell extracts; GenBank NM-006547 printed for the gene; also called IMP-3
B3: ECFP-fused KOC1 (ECFP-KOC1) (other)
chain: B1 chain
notes: Expressed in COS-7 cells; not shown: ECFP from pECFP-N1 vector
B4: KOC1DEL3 (KOC1 deletion mutant 3; 2xRRM without KH, N-terminal FLAG, C-terminal HA) (other)
chain: MNKLYIGNLSENAAPSDLESIFKDAKIPVSGPFLVKTGYAFVDCPDESWALKAIEALSGKIELHGKPIEVEHSVPKRQRIRKLQIRNIPPHLQWEVLDSLLVQYGVVESCEQVNTDSETAVVNVTYSSKDQARQALDKLNGFQLENFTLKVAYIPDEMAAQQNPLQQPRGRRGLGQRGSSRQGSPGSVSKQKPCDLP
notes: Contains the two RRMs and lacks the four KH domains; also called the RRM domains; not shown: N-terminal FLAG tag; C-terminal HA tag
B5: endogenous KIF11 (kinesin family member 11) (other)
chain: T1 sequence
notes: Endogenous protein in cell extracts; GenBank NM-004523 printed for the gene; also called EG5
B6: KOC1DEL2 (KOC1 deletion mutant 2; 2xRRM+2xKH, N-terminal FLAG, C-terminal HA) (other)
chain: MNKLYIGNLSENAAPSDLESIFKDAKIPVSGPFLVKTGYAFVDCPDESWALKAIEALSGKIELHGKPIEVEHSVPKRQRIRKLQIRNIPPHLQWEVLDSLLVQYGVVESCEQVNTDSETAVVNVTYSSKDQARQALDKLNGFQLENFTLKVAYIPDEMAAQQNPLQQPRGRRGLGQRGSSRQGSPGSVSKQKPCDLPLRLLVPTQFVGAIIGKEGATIRNITKQTQSKIDVHRKENAGAAEKSITILSTPEGTSAACKSILEIMHKEAQDIKFTEEIPLKILAHNNFVGRLIGKEGRNLKKIEQDTDTKITISPLQELTLYNPERTITVKGNVETCAKAEEEIMKKIRESYENDIASMNLQAHLIPGLNLNALGLFPPTSGMPPPTSGPPSAMTPPYPQFEQSETE
notes: Lacks the C-terminal two KH domains; not shown: N-terminal FLAG tag; C-terminal HA tag

Tests used:
[1] = biological target: B5; assay: anti-Flag and anti-HA immunoprecipitation from transfected LC319 cells, silver stain, MALDI-TOF
Procedure: Cells were extracted in IP-buffer (0.5% NP-40, 50 mM Tris-HCl, 150 mM NaCl, and protease inhibitor) for 30 min on ice. Extracts were centrifuged at 14,000 rpm for 15 min, and supernatants were subjected to immunoprecipitation using anti-Flag M2 agarose (Sigma-Aldrich) and anti-HA beads (Sigma-Aldrich) for 1-2 hours. The beads were washed six times with IP-buffer, and protein was eluted by boiling the beads in Laemmli sample buffer after removing the final wash fraction. The eluted protein was resolved by SDS-PAGE and stained with silver staining. A 125 kDa-band was extracted by gel extraction, and used for mass spectrometric sequencing using MALDI-TOF mass spectrometry.

[2] = biological target: B5; assay: reciprocal immunoprecipitation with anti-KOC1 and anti-KIF11 polyclonal antibodies, western blot
[3] = biological target: T1, EYFP-fused KIF11 (EYFP-KIF11); assay: live-cell fluorescence microscopy of co-transfected COS-7 cells (co-localised particles)
[4] = biological target: B5; assay: immunoprecipitation from transfected LC319 cells
[5] = biological target: dynactin 1 (DCTN1; p150, glued homolog, Drosophila), endogenous (human, UniProt Q14203 1-1278, limits assumed); assay: immunoprecipitation with anti-KIF11 polyclonal and anti-DCTN1 monoclonal antibody; 150-kDa partner first identified by MALDI-TOF from LC319 lysate
[6] = biological target: B5; assay: immunoprecipitation from transfected A549 cells

Sequence of dynactin 1 (DCTN1; p150, glued homolog, Drosophila), endogenous (Q14203 whole entry): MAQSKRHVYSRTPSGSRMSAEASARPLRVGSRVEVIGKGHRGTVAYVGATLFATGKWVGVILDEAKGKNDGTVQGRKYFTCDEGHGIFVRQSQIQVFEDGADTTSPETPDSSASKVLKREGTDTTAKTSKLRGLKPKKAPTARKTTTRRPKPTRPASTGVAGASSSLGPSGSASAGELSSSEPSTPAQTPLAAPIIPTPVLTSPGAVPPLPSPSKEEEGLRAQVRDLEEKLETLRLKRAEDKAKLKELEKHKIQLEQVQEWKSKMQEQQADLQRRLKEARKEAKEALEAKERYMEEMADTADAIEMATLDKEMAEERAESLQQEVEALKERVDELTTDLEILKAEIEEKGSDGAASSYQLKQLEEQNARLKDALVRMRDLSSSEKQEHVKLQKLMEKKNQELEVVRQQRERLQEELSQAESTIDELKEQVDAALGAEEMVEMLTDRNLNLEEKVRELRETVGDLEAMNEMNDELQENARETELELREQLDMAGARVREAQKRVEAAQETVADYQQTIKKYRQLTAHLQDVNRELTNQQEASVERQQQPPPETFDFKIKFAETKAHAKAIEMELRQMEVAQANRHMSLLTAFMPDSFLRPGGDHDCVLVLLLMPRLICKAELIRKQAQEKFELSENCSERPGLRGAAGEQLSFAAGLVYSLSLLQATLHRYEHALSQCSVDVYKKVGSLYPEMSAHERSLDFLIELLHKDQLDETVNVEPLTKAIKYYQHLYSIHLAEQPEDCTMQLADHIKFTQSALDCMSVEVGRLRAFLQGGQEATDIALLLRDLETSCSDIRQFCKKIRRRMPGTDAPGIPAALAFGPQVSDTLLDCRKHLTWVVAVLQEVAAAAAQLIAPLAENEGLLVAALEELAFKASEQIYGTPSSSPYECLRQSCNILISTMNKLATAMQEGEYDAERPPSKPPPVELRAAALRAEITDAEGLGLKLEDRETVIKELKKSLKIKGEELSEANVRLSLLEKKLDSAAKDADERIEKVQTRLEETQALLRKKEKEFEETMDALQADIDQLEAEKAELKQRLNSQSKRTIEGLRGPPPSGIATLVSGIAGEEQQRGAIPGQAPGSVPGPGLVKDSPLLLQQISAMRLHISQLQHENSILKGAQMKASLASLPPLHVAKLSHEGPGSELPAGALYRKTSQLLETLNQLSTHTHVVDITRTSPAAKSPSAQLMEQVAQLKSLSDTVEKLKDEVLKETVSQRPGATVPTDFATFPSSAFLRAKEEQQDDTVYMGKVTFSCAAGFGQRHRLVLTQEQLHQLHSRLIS

Binder: B1
binding result [1]: binds

Binder: B2
binding result [2]: binds

Binder: B3
binding result [3]: binds

Binder: B4
binding result [4]: binds

Binder: B5
binding result [5]: binds

Binder: B6
binding result [6]: binds
